Data: publication PMC8350387, “Solution Structure of the dATP-Inactivated Class I Ribonucleotide Reductase From Leeuwenhoekiella blandensis by SAXS and Cryo-Electron Microscopy” (Frontiers in Molecular Biosciences, 2021)

Tests used:
[1] = molecular target: Leeuwenhoekiella blandensis class I ribonucleotide reductase radical-generating subunit NrdB (LbNrdB) (Leeuwenhoekiella blandensis); experiment: SEC-SAXS; LbNrdB alone, 350 μL of 11 mg/ml with 1 mM dATP loaded on Superdex S200; SEC buffer 50 mM Tris-HCl pH 7.6, 300 mM NaCl, 2 mM DTT, 1 mM Mg acetate, 0.4 mM dATP, 5% glycerol
[2] = molecular target: Leeuwenhoekiella blandensis class I ribonucleotide reductase radical-generating subunit NrdB (LbNrdB) (Leeuwenhoekiella blandensis); experiment: cryo-EM structure; LbNrdAB complex formed with dATP, isolated on Superdex 200 with on-column 0.05% glutaraldehyde cross-linking in HEPES buffer; single particle reconstruction at 8.2 Å, no symmetry imposed
[3] = molecular target: Leeuwenhoekiella blandensis class I ribonucleotide reductase radical-generating subunit NrdB (LbNrdB) (Leeuwenhoekiella blandensis); experiment: SEC-SAXS; LbNrdA and LbNrdB mixed at 85 μM each with 1 mM dATP and 2 mM magnesium acetate, 5 min, on Superdex S200; SEC buffer 50 mM Tris-HCl pH 7.6, 300 mM NaCl, 2 mM DTT, 1 mM Mg acetate, 0.4 mM dATP, 5% glycerol
[4] = molecular target: the molecule itself; experiment: SAXS; batch mode, LbNrdA 0.625-5 mg/ml in 50 mM Tris-HCl pH 7.6, 300 mM NaCl, 2 mM DTT, 5% glycerol, 2 mM magnesium acetate, 1 mM dATP; 10 °C

Molecule: Leeuwenhoekiella blandensis class I ribonucleotide reductase radical-generating subunit NrdB (LbNrdB) (enzyme)
- stoichiometry N [1]: 4
- stoichiometry N [2]: 4
- stoichiometry N [3]: 4

B1: Leeuwenhoekiella blandensis class I ribonucleotide reductase catalytic subunit NrdA (LbNrdA) (enzyme, UniProt A3XHF8 1-600, looked up)
chain: MRENTTKLENSTETNVQHTKDNDLLKARRDALQDATEKNTDEPSFDWLTEHSRSFLAAGYLSEGVSAEERIREIADRAEEILRMPGFSDKFYKYMGEGYFSLASPVWSNFGKKRGLPISCFGSHIDDDMGNILYTQSEVGMMSKLGGGTSGYFGKIRHRGAAVKNNGYASGAVHIMQLFDKMVDVVSQGSVRRGRFSPYLPISHPDIKEFLEIGTEGNSIQQLTHGVTVDSTWMQEMIDGDTDKREVWAKVLQRRGEMGYPYIFYTDNANNGKPDVYKDKGHDIYASNLCTEIMLPSSDEWSFVCVLSSINVLHYDKWKNTDAVETMVCFLDAVLTEFIDKLEEYRDSDNRDHRQTFMFMERAYNFAKSNRALGLGVLGWHSLLQSKRHAFDSQEAYDLNSEIFREIKQRSYKASEELAEKFGEPETLKGYGRRNATLNAIAPTTSSAFILGQVSQGIEPIWSNVYVKDIAKIKTTIKNPFLEELFEEKGMNTPEVWRSVRDNDGSVQHLEFLTEQEKDVFKTYAEIDQMAIIYQAANRQNHIDQGQSINLLVHPDMPIKEINKIHITAWKLGLKSLYYQHSMNAAQKFKQKKECVSCEA
notes: NrdA (α subunit, subclass NrdAi, lacks an ATP-cone) of Leeuwenhoekiella blandensis; the homology model covers residues 40-596 and lacks 43 terminal residues per monomer; Dimer (α2) with dATP by SAXS; also called α2 (dimer); source: purified as described previously (Rozman Grinberg et al., 2018a); not shown: His6, N-terminal, kept
- stoichiometry N [4]: 2
- stoichiometry N (LbNrdA per LbNrdB (α4β4)) [3]: 1
